Measurements published in patent US12692310B2, “ASIC1 channel antagonist antibody” (ShanghaiTech University, priority 2019, dated 2026).
Where a chain is given by its changes, count along the chain named.

What was measured:
hASIC1a = target: T1, hASIC1a (Homo sapiens, UniProt P78348); test: Steady-state desensitization (SSD) and pH activation of hASIC1a, patch clamp; assay type: cell-based
T1 construct: expressed in transfected cells
T1 sequence (P78348 1-528): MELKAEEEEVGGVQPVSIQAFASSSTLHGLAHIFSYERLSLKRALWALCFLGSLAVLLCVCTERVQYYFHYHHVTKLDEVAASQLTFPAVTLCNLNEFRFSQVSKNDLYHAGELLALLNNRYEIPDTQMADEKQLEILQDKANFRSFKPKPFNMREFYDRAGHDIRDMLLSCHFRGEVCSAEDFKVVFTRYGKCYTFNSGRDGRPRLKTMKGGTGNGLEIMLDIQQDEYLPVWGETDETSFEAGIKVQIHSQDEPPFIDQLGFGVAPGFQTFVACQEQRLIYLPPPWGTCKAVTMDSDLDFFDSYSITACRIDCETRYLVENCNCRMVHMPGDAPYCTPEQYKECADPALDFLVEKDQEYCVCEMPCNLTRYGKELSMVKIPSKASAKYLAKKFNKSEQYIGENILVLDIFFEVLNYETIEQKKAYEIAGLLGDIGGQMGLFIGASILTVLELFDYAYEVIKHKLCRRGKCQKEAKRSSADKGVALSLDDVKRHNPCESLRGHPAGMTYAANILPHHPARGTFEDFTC
Protocol: For the measurement of steady-state desensitization (SSD), the pH of the conditioning ECF was adjusted to 7.6, 7.4, 7.2, 7.0, and 6.8 (in a HEPES buffer), while the activating ECF was maintained at pH 6.0 (in an MES buffer). For the measurement of pH activation of the hASIC1a in the 6H7 stable cells, the conditioning ECF was fixed at pH 7.6 (in a HEPES buffer), and the pH of the activating ECF was adjusted to 7.4, 7.2, 7.0, 6.8, 6.5, 6.3, and 6.0. The hASIC1a currents were recorded when the stable cell line 6H7 was patched in the presence and absence of 300 nM ASC06-IgG1. The relative currents expressed as fractions of the maximum amplitude on the sensorgram (I/Imax) were calculated and plotted to constitute SSD and pH activation profiles. Each data point represents the average of at least five patched cells.
To understand the mechanism by which ASC06-IgG1 blocked the hASIC1a currents, SSD and pH activation of hASIC1a in the absence and presence of ASC06-IgG1 were examined. The pH50 (a drop in extracellular pH, which can open 50% of the ASIC1a channel) values of the SSD curve and the pH activation curve for hASIC1a were measured and compared with or without 300 nM ASC06-IgG1. As shown in FIGS. 11A-11B, the SSD was induced when applying the conditioning extracellular fluids (ECFs) with different pH values and the activating ECF at pH 6.0, whereas the pH activation curve was constructed when applying the activating ECFs with varying pH values and the conditioning ECF at pH 7.6.

hASIC1a Y318A = target: T2, hASIC1a Y318A (Homo sapiens, UniProt P78348, Y318A); test: FACS binding to alanine mutant hASIC1a-eYFP on CHO-K1 cells; assay type: cell-based; settings: vs WT hASIC1a
T2 construct: expressed in transfected cells; host or cells: CHO-K1, transient
T2 sequence (P78348 1-528 Y318A): T1 sequence (P78348 1-528) with Y318A
Protocol: (§1) To confirm the role of these amino acids, alanine mutagenesis was performed and four amino acids are very important for antibody binding were identified. Plasmid encoding single amino acid mutation of hASIC1a-eYFP was constructed and transient transfected into CHO-K1 cells. FACS binding assay was then performed to test whether the ASC06-IgG1 still binds to cell surface expressing mutated hASIC1a.

hASIC1a Y360A = target: T3, hASIC1a Y360A (Homo sapiens, UniProt P78348, Y360A); test: as above; assay type: cell-based; settings: vs WT hASIC1a
T3 construct: expressed in transfected cells; host or cells: CHO-K1, transient
T3 sequence (P78348 1-528 Y360A): T1 sequence (P78348 1-528) with Y360A
Protocol: as §1

[1] = pH stability, SEC-HPLC analysis; assay type: physicochemical; design: dose or concentration left out as unconfirmed; settings: pH 7.4 to 5.0, 6 h at 37° C.
Protocol: The tolerance of ASC06-IgG1 to acidic conditions was tested. A concentrated ASC06-IgG1 solution ([…]) was incubated at different pH values (from 7.4 to 5.0) for 6 h at 37° C. and subjected to SEC-HPLC analysis.

B1: ASC06-IgG1: ASC06 antibody converted into a full length IgG1 form (antibody, V domains shown)
VH: QVQLQQSGGGLVQPGGSLRLSCAASGFTFSSYAMSWVRQAPGKGLEWVSAISGSGGSTYYADSVKGRFTISRDNSKNTLYLQMNSLRAEDTAVYYCAKDSFYGYSKGDWGQGTLVTVSS
VL: QSALTQPASVSGSPGQSITISCTGTSSDVGAYNYVSWYQQQPGKAPKLMIYGVSNRPSGVSNRFSGSKSGNAASLTISGLQAEDEADYYCSSYTSSSTYVFGTGTKLTVLG
mechanism of block relative to proton concentration (hASIC1a): noncompetitive with the proton concentration | change of pH50 value of SSD (hASIC1a; 300 nM, activating ECF pH 6.0): No significant differences | change of pH50 value of pH activation (hASIC1a; 300 nM, conditioning ECF pH 7.6): No significant differences | interference with SSD and activation of ASIC1a (hASIC1a; 300 nM, representative traces): interferes with neither SSD nor activation | binding to hASIC1a Y318A mutation (hASIC1a Y318A): abolished | binding to hASIC1a Y360A mutation (hASIC1a Y360A): decrease | degradation or aggregation by SEC-HPLC [1]: no significant degradation or aggregation
